Measurements as given in patent publication US20240084023A1 (NGM BIOPHARMACEUTICALS, published 2024).
Changes are numbered by the printed parent chain.

Key:
Assay in all cases: flow cytometry on transfected 293XP cells
[1] = biological target: T1, GCGR extracellular domain alanine mutant Q113A (human, UniProt P47871 26-136, limits assumed)
T1 construct: expressed in 293XP cells
T1 chain: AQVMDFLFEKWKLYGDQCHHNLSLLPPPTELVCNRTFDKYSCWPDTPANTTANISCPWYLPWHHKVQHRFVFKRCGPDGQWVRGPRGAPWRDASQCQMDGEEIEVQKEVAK
Experimental: (§1) To assist in gathering information on the GCGR epitope that the 6B5 binning group bound to, “alanine scanning mutagenesis” was undertaken. These alanine scanning mutagenesis platform is a technique used for mapping both linear and conformational antigen epitopes by evaluating the effects of point mutations across a target protein. Single residues in a target protein are replaced by alanine one at a time to construct a mutant library. Each variant is assayed for its ability to bind to an antibody of interest. […] Amino acids across the extracellular domain of GCGR were mutated to alanine and the anti-GCGR antibody Hz6B5 was tested for binding to the alanine mutants.
(§2) The wild-type GCGR extracellular domain and the alanine mutants were each transfected into 293XP cells and incubated for 24 hours. Antibody Hz6B5 was incubated with the transfected cells for 30 minutes at 4° C. After washing with PBS/1% BSA/0.1% azide, the cells were incubated with a labeled anti-mouse Fc antibody (Jackson Immunoresearch) for 30 minutes at 4° C. After washing with PBS/1% BSA/0.1% azide, the cells were analyzed using a flow cytometer BD (FACSCalibur instrument) and cytometric analytical software (FlowJo). A serum sample from a mouse immunized with human GCGR was used as positive control to confirm expression of the alanine mutants.

[2] = biological target: T2, GCGR extracellular domain alanine mutant F62A (human, UniProt P47871 26-136, limits assumed)
T2 construct: expressed in 293XP cells
T2 chain: T1 chain with F37A, A88Q
Experimental: as §1, §2

[3] = biological target: T3, GCGR extracellular domain alanine mutant W87A (human, UniProt P47871 26-136, limits assumed)
T3 construct: expressed in 293XP cells
T3 chain: T1 chain with W62A, A88Q
Experimental: as §1, §2

[4] = biological target: T4, GCGR extracellular domain alanine mutant K64A (human, UniProt P47871 26-136, limits assumed)
T4 construct: expressed in 293XP cells
T4 chain: T1 chain with K39A, A88Q
Experimental: as §1, §2

[5] = biological target: T5, GCGR extracellular domain alanine mutant P110A (human, UniProt P47871 26-136, limits assumed)
T5 construct: expressed in 293XP cells
T5 chain: T1 chain with P85A, A88Q
Experimental: as §1, §2

[6] = biological target: T6, GCGR extracellular domain alanine mutant F33A (human, UniProt P47871 26-136, limits assumed)
T6 construct: expressed in 293XP cells
T6 chain: T1 chain with F8A, A88Q
Experimental: as §1, §2

[7] = biological target: T7, GCGR extracellular domain alanine mutant K90A (human, UniProt P47871 26-136, limits assumed)
T7 construct: expressed in 293XP cells
T7 chain: T1 chain with K65A, A88Q
Experimental: as §1, §2

[8] = biological target: T8, GCGR extracellular domain alanine mutant L50A (human, UniProt P47871 26-136, limits assumed)
T8 construct: expressed in 293XP cells
T8 chain: T1 chain with L25A, A88Q
Experimental: as §1, §2

[9] = biological target: T9, GCGR extracellular domain alanine mutant Y65A (human, UniProt P47871 26-136, limits assumed)
T9 construct: expressed in 293XP cells
T9 chain: T1 chain with Y40A, A88Q
Experimental: as §1, §2

[10] = biological target: T10, GCGR extracellular domain alanine mutant H44A (human, UniProt P47871 26-136, limits assumed)
T10 construct: expressed in 293XP cells
T10 chain: T1 chain with H19A, A88Q
Experimental: as §1, §2

[11] = biological target: T11, GCGR extracellular domain alanine mutant R94A (human, UniProt P47871 26-136, limits assumed)
T11 construct: expressed in 293XP cells
T11 chain: T1 chain with R69A, A88Q
Experimental: as §1, §2

[12] = biological target: T12, GCGR extracellular domain alanine mutant Y84A (human, UniProt P47871 26-136, limits assumed)
T12 construct: expressed in 293XP cells
T12 chain: T1 chain with Y59A, A88Q
Experimental: as §1, §2

[13] = biological target: T13, GCGR extracellular domain alanine mutant W36A (human, UniProt P47871 26-136, limits assumed)
T13 construct: expressed in 293XP cells
T13 chain: T1 chain with W11A, A88Q
Experimental: as §1, §2

% positive cells [1]: 83.4%
% positive cells [2]: 62.8%
% positive cells [3]: 74.7%
% positive cells [4]: 87.6%
% positive cells [5]: 84.7%
% positive cells [6]: 71.8%
% positive cells [7]: 83%
% positive cells [8]: 86.6%
% positive cells [9]: 64.8%
% positive cells [10]: 82.2%
% positive cells [11]: 0%
% positive cells [12]: 63.4%
% positive cells [13]: 70.9%
B1: anti-GCGR antibody Hz6B5 (antibody, V domains shown)
VH: QVQLVQSGAEVKKPGSSVKVSCKASGFTFTNHWLGWVRQAPGQGLEWIGDIYPGGYYINYNEKFKGRVTITADESTSTAYMELSSLRSEDTAVYYCARHTNYGSDYWGQGTTVTVSS
VL: DVVMTQSPLSLPVTLGQPASISCRSSQSIVDSYGNTFLEWYQQRPGQSPRLLIYKVSNRLSGVPDRFSGSGSGTDFTLKISRVEAEDVGVYYCFQGSHVPWTFGQGTKLEIK
notes: Humanized 6B5
